1 molecule from publication PMC9910460 (Proceedings of the National Academy of Sciences of the …, 2022) can be followed below.

The target of the assay is TF-Mec1 1–500aa (Saccharomyces cerevisiae, UniProt P38111 1-500). The assay is described as follows: pull-down.
Chain of TF-Mec1 1–500aa (P38111 1-500): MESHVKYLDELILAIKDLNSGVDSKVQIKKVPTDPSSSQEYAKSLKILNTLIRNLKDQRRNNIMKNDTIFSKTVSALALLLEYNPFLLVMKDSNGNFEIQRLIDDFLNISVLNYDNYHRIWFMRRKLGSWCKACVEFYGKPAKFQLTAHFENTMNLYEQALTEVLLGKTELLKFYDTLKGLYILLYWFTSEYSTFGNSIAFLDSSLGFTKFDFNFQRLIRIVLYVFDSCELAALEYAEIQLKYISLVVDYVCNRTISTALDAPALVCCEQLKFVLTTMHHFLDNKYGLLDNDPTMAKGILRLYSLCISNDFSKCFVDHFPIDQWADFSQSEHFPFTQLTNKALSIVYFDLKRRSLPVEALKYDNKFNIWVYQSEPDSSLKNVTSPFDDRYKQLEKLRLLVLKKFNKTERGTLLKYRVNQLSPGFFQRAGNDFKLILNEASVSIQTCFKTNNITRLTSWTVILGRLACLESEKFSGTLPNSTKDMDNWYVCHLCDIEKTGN

B1: GST–Atg13 460–640aa (domain or fragment, Saccharomyces cerevisiae, UniProt Q06628 460-640, looked up)
chain: ESQEDLMDFVKLLEEKPDLTIKKTSGNNPPNINISDSLIRYQNLKPSNDLLSEDLSVSLSMDPNHTYHRGRSDSHSPLPSISPSMHYGSLNSRMSQGANASHLIARGGGNSSTSALNSRRNSLDKSSNKQGMSGLPPIFGGESTSYHHDNKIQKYNQLGVEEDDDDENDRLLNQMGNSATK
Regarding B1, the binding result is “binds”.
